Test results taken from the Immune Epitope Database (IEDB).

Experiments:
HLA-B*44:02 = assay: IEDB peptide-MHC binding, purified MHC/competitive/radioactivity; filed as Kd, often an IC50 or EC50 that approximates it; ≥ and ≤ were set here for values at or beyond the usual limits of such assays
HLA-B*44:03 = assay: as above
HLA-A*02:03 = assay: as above
HLA-A*32:01 = assay: as above
HLA-A*24:02 [1] = assay: IEDB peptide-MHC binding, purified MHC/competitive/fluorescence; ≥ and ≤ were set here for values at or beyond the usual limits of such assays
HLA-A*02:01 = assay: as above
HLA-A*03:01 = assay: IEDB peptide-MHC binding, purified MHC/direct/fluorescence; filed as Kd, often an IC50 or EC50 that approximates it; ≥ and ≤ were set here for values at or beyond the usual limits of such assays; conditions: source organism: Campylobacter jejuni RM1221
HLA-A*11:01 = assay: as above
HLA-B*40:01 = assay: as above
HLA-A*69:01 = assay: as above; conditions: source organism: Homo sapiens
HLA-A*01:01 [2] = assay: as above; conditions: source organism: Homo sapiens
HLA-A*02:02 = assay: IEDB peptide-MHC binding, purified MHC/competitive/radioactivity; filed as Kd, often an IC50 or EC50 that approximates it; ≥ and ≤ were set here for values at or beyond the usual limits of such assays; conditions: source organism: Vaccinia virus WR
HLA-A*02:06 = assay: as above; conditions: source organism: Vaccinia virus WR
HLA-B*53:01 = assay: as above
HLA-A*29:02 = assay: as above
HLA-A*30:02 = assay: as above
HLA-A*26:01 = assay: as above
HLA-A*24:02 [3] = assay: as above
HLA-A*01:01 [4] = assay: as above
HLA-A*23:01 = assay: as above
[5] = source organism: Dengue virus 1 Brazil/97-11/1997
[6] = source organism: Dengue virus 4 Philippines/H241/1956
[7] = source organism: Vaccinia virus WR
[8] = source organism: Zaire ebolavirus
[9] = source organism: Sudan ebolavirus
[10] = source organism: Dengue virus 3 Martinique/1243/1999
[11] = source organism: Dengue virus 2 Peru/IQT2913/1996
[12] = source organism: Dengue virus 2 Jamaica/1409/1983
[13] = source organism: SARS coronavirus Tor2
[14] = source organism: Mammarenavirus guanaritoense

NESDPEGALW
Kd (HLA-B*44:02; [5]): 0.0266 µM | Kd (HLA-B*44:03; [5]): 0.134 µM

TLYAVATTI
Kd (HLA-A*02:03; [6]): 0.0112 µM | Kd (HLA-A*32:01; [6]): 0.356 µM

RTFLIDLAF
Kd (HLA-A*32:01; [7]): 0.00048 µM

QRWGGTCHI
IC50 (HLA-A*24:02 [1]; [8]): 43.3 µM

GTNGNHMQI
IC50 (HLA-A*02:01; [9]): 62.9 µM | IC50 (HLA-A*24:02 [1]; [9]): 3.02 µM

KVSDSNLHK
Kd (HLA-A*03:01): 0.19 µM | Kd (HLA-A*11:01; source organism: Campylobacter jejuni RM1221): 0.0046 µM

KLFYVYYNL
Kd (HLA-A*32:01; [7]): 0.000344 µM

TTELRTFSI
IC50 (HLA-A*02:01; [8]): 68.3 µM | IC50 (HLA-A*24:02 [1]; [8]): 12.2 µM

EEPVPMSTY
Kd (HLA-B*44:02; [10]): 0.36 µM

AEPIDIQTW
Kd (HLA-B*44:03; source organism: Homo sapiens): 0.066 µM

ADSGCVINW
Kd (HLA-B*44:02; [5]): 0.0707 µM

NEIRALMAL
Kd (HLA-B*40:01; source organism: Mycobacterium tuberculosis): 0.0182 µM

AERVLDWLEK
Kd (HLA-B*44:02; [5]): 3.27 µM

IEKTKTDFGF
Kd (HLA-B*44:02; [6]): 1.73 µM

GSEDRDLLY
Kd (HLA-A*69:01): 3.96 µM | Kd (HLA-A*11:01; source organism: Homo sapiens): 6.94 µM | Kd (HLA-A*01:01 [2]): 0.0426 µM

MGEDGCWYGM
Kd (HLA-A*32:01; [10]): ≥ 36.4 µM

TVMAFHLTT
Kd (HLA-A*32:01; [11]): 19.2 µM

ISLFYTFAI
Kd (HLA-A*32:01; [7]): 0.000567 µM

QILLMRTTW
Kd (HLA-A*32:01; [5]): 0.022 µM

RHLIFSYAF
Kd (HLA-A*32:01; [7]): 0.0136 µM

AVLTGGVTL
Kd (HLA-A*32:01; [5]): 6.69 µM

SQQKADWIPL
Kd (HLA-A*32:01; [12]): 2.79 µM

ITLVVISVI
Kd (HLA-A*02:03; [7]): 1.81 µM | Kd (HLA-A*32:01; [7]): ≥ 35.3 µM | Kd (HLA-A*02:02): 15.1 µM | Kd (HLA-A*02:06): 1.03 µM

RVLFNNFKI
Kd (HLA-A*32:01; [7]): 0.000885 µM

MEHKYSWKSW
Kd (HLA-A*32:01; [5]): 2.04 µM | Kd (HLA-B*44:02; [5]): 0.0112 µM | Kd (HLA-B*44:03; [5]): 0.137 µM

RTFNRTHYW
Kd (HLA-A*32:01; [7]): 0.000243 µM

HYWTTQDEG
IC50 (HLA-A*24:02 [1]; [8]): 42.8 µM

QPTELKYSW
Kd (HLA-B*53:01; [12]): 0.011 µM

LPMTVAAMG
Kd (HLA-B*53:01; source organism: Dengue virus 3 Sri Lanka/1266/2000): 3.54 µM

AELEDGAYRI
Kd (HLA-B*44:02; [12]): 0.016 µM | Kd (HLA-B*44:03; [12]): 0.0179 µM

TTQTSALSI
Kd (HLA-A*32:01; [7]): 0.145 µM

FHKDGAFFL
IC50 (HLA-A*02:01; [9]): ≥ 92.9 µM | IC50 (HLA-A*24:02 [1]; [9]): 6.73 µM

QPTELRYSW
Kd (HLA-B*53:01; [11]): 0.0526 µM

LTGTFVTAF
Kd (HLA-A*32:01; [7]): 0.00881 µM

PFDAVLYYH
IC50 (HLA-A*24:02 [1]; [8]): 4.69 µM

KRSNTTGKL
IC50 (HLA-A*24:02 [1]; [8]): 66.1 µM

NVAYGAVSF
Kd (HLA-A*32:01; [7]): 0.136 µM

HAYQGDYKL
IC50 (HLA-A*02:01; [8]): ≥ 78 µM | IC50 (HLA-A*24:02 [1]; [8]): 20.9 µM

AEQIVLGVI
Kd (HLA-B*40:01; source organism: Mycobacterium tuberculosis variant bovis): 0.0611 µM

EEREIPERSW
Kd (HLA-B*44:02; [12]): 0.0665 µM | Kd (HLA-B*44:03; [12]): 0.242 µM

AEIPLQWIA
Kd (HLA-B*44:02; [10]): 0.0686 µM | Kd (HLA-B*44:03; [10]): 0.634 µM

HFAIGLALY
Kd (HLA-A*29:02; [13]): 0.00471 µM | Kd (HLA-A*30:02; [13]): 0.0132 µM | Kd (HLA-A*26:01; [13]): 0.24 µM | Kd (HLA-A*24:02 [3]; [13]): 11.1 µM | Kd (HLA-A*01:01 [4]; [13]): ≥ 119 µM | Kd (HLA-A*23:01; [13]): 11.5 µM

MFSPIVPFW
Kd (HLA-A*29:02; [13]): 0.0951 µM | Kd (HLA-A*30:02; [13]): ≥ 30.3 µM | Kd (HLA-A*26:01; [13]): ≥ 77.9 µM | Kd (HLA-A*24:02 [3]; [13]): 0.111 µM | Kd (HLA-A*01:01 [4]; [13]): ≥ 78.1 µM | Kd (HLA-A*23:01; [13]): 0.0292 µM

RTYGVNYTF
Kd (HLA-A*32:01; [7]): 0.000261 µM

AEAIFKLTY
Kd (HLA-B*44:02; [12]): 0.00367 µM | Kd (HLA-B*44:03; [12]): 0.0347 µM

KDFFSSHPL
IC50 (HLA-A*02:01; [8]): ≥ 249 µM | IC50 (HLA-A*24:02 [1]; [8]): 55.1 µM

GPLTTLWEGS
Kd (HLA-A*32:01; [5]): 18.2 µM

RTLAAMPEE
IC50 (HLA-A*02:01; [8]): ≥ 351 µM | IC50 (HLA-A*24:02 [1]; [8]): 6.75 µM

QILASILSI
Kd (HLA-A*32:01; [7]): 0.0221 µM

YVQRFFLRV
Kd (HLA-A*29:02; [14]): 0.767 µM | Kd (HLA-A*30:02; [14]): 0.732 µM | Kd (HLA-A*26:01; [14]): ≥ 77.9 µM | Kd (HLA-A*24:02 [3]; [14]): ≥ 26.6 µM | Kd (HLA-A*01:01 [4]; [14]): 1.02 µM | Kd (HLA-A*23:01; [14]): 4.27 µM

GAFFLYDRL
IC50 (HLA-A*02:01; [9]): ≥ 158 µM | IC50 (HLA-A*24:02 [1]; [9]): ≥ 122 µM

VEPGQLKLNW
Kd (HLA-B*44:02; [12]): 0.389 µM | Kd (HLA-B*44:03; [12]): 0.0632 µM

KTTAKEVAL
Kd (HLA-A*32:01; [6]): ≥ 21.1 µM

AMYADDTAGW
Kd (HLA-B*44:02; [12]): 0.124 µM

YAPFARLLN
IC50 (HLA-A*02:01; [8]): ≥ 87.8 µM | IC50 (HLA-A*24:02 [1]; [8]): 19.3 µM
